Measurements from patent publication US7745159.

What was measured:
[1] = target: antigen defined by MAb OV569 on human carcinoma cell surfaces (human); experiment: flow cytometry, OV569 supernatant on lung carcinoma line H2981, against an irrelevant MAb
[2] = target: antigen defined by MAb OV569 on human carcinoma cell surfaces (human); experiment: flow cytometry, OV569 supernatant on lung carcinoma line H2987, against an irrelevant MAb
[3] = target: antigen defined by MAb OV569 on human carcinoma cell surfaces (human); experiment: flow cytometry, OV569 supernatant on lung carcinoma line H3754, against an irrelevant MAb
[4] = target: antigen defined by MAb OV569 on human carcinoma cell surfaces (human); experiment: flow cytometry, OV569 supernatant on lung carcinoma line H3776, against an irrelevant MAb
[5] = target: antigen defined by MAb OV569 on human carcinoma cell surfaces (human); experiment: flow cytometry, OV569 supernatant on lung carcinoma line H3963, against an irrelevant MAb
[6] = target: antigen defined by MAb OV569 on human carcinoma cell surfaces (human); experiment: flow cytometry, OV569 supernatant on lung carcinoma line H4013, against an irrelevant MAb
[7] = target: antigen defined by MAb OV569 on human carcinoma cell surfaces (human); experiment: flow cytometry, OV569 supernatant on ovarian carcinoma line H3538, against an irrelevant MAb
[8] = target: antigen defined by MAb OV569 on human carcinoma cell surfaces (human); experiment: flow cytometry, OV569 supernatant on ovarian carcinoma line H3633, against an irrelevant MAb
[9] = target: antigen defined by MAb OV569 on human carcinoma cell surfaces (human); experiment: flow cytometry, OV569 supernatant on ovarian carcinoma line H3750, against an irrelevant MAb
[10] = target: antigen defined by MAb OV569 on human carcinoma cell surfaces (human); experiment: flow cytometry, OV569 supernatant on ovarian carcinoma line H3759, against an irrelevant MAb
[11] = target: antigen defined by MAb OV569 on human carcinoma cell surfaces (human); experiment: flow cytometry, OV569 supernatant on ovarian carcinoma line H3907, against an irrelevant MAb
[12] = target: antigen defined by MAb OV569 on human carcinoma cell surfaces (human); experiment: flow cytometry, OV569 supernatant on ovarian carcinoma line H3909, against an irrelevant MAb
[13] = target: antigen defined by MAb OV569 on human carcinoma cell surfaces (human); experiment: flow cytometry, OV569 supernatant on ovarian carcinoma line H4002, against an irrelevant MAb
[14] = target: antigen defined by MAb OV569 on human carcinoma cell surfaces (human); experiment: flow cytometry, OV569 supernatant on ovarian carcinoma line H4004, against an irrelevant MAb
[15] = target: antigen defined by MAb OV569 on human carcinoma cell surfaces (human); experiment: flow cytometry, OV569 supernatant on ovarian carcinoma line H4006, against an irrelevant MAb
[16] = target: antigen defined by MAb OV569 on human carcinoma cell surfaces (human); experiment: flow cytometry, OV569 supernatant on ovarian carcinoma line H4007, against an irrelevant MAb
[17] = target: antigen defined by MAb OV569 on human carcinoma cell surfaces (human); experiment: flow cytometry, OV569 supernatant on ovarian carcinoma line H4012, against an irrelevant MAb
[18] = target: antigen defined by MAb OV569 on human carcinoma cell surfaces (human); experiment: flow cytometry, OV569 supernatant on ovarian carcinoma line H4014, against an irrelevant MAb
[19] = target: antigen defined by MAb OV569 on human carcinoma cell surfaces (human); experiment: flow cytometry, OV569 supernatant on ovarian carcinoma line H3659.5, against an irrelevant MAb
[20] = target: antigen defined by MAb OV569 on human carcinoma cell surfaces (human); experiment: flow cytometry, OV569 supernatant on ovarian carcinoma line H4010-1, against an irrelevant MAb

LFE(sample)/LFE(control) [1]: 1.3
LFE(sample)/LFE(control) [2]: 1.25
LFE(sample)/LFE(control) [3]: 1.59
LFE(sample)/LFE(control) [4]: 1.33
LFE(sample)/LFE(control) [5]: 1.11
LFE(sample)/LFE(control) [6]: 7
LFE(sample)/LFE(control) [7]: 2.55
LFE(sample)/LFE(control) [8]: 1
LFE(sample)/LFE(control) [9]: 2.57
LFE(sample)/LFE(control) [10]: 6.74
LFE(sample)/LFE(control) [11]: 3.85
LFE(sample)/LFE(control) [12]: 3.84
LFE(sample)/LFE(control) [13]: 8.48
LFE(sample)/LFE(control) [14]: 2.43
LFE(sample)/LFE(control) [15]: 2.53
LFE(sample)/LFE(control) [16]: 8.72
LFE(sample)/LFE(control) [17]: 1
LFE(sample)/LFE(control) [18]: 1
LFE(sample)/LFE(control) [19]: 5.63
LFE(sample)/LFE(control) [20]: 1.12
Substance: monoclonal antibody OV569
